Laboratory results reported in the supplement of paper PMC10567573.

B1: NP_006221.1 (parent)
chain: CQPISFSGFGAEDDDLGGLGLGP
B2: CDKN1A (parent)
chain: RRQTSMTDFYHSKRRLIFSKRKP

Variants of: B1
Test: protein stability index of a GFP-peptide fusion (GPS, HEK-293T) (PSI 1-6); higher = more stable
Conditions: c terminus: native

Variant	protein stability index
CQPPSFSGFGAEDDDLGGLGLGP [I4P]	2.2
CQPWSFSGFGAEDDDLGGLGLGP [I4W]	2.25
CQPHSFSGFGAEDDDLGGLGLGP [I4H]	2.25
CQPLSFSGFGAEDDDLGGLGLGP [I4L]	2.11
CQPASFSGFGAEDDDLGGLGLGP [I4A]	2.17
CQPMSFSGFGAEDDDLGGLGLGP [I4M]	2.21
CQPRSFSGFGAEDDDLGGLGLGP [I4R]	2.08
CQPNSFSGFGAEDDDLGGLGLGP [I4N]	2.45
CQPFSFSGFGAEDDDLGGLGLGP [I4F]	2.12
CQPCSFSGFGAEDDDLGGLGLGP [I4C]	2.43
CQPSSFSGFGAEDDDLGGLGLGP [I4S]	2.31
CQPTSFSGFGAEDDDLGGLGLGP [I4T]	2.47
CQPDSFSGFGAEDDDLGGLGLGP [I4D]	2.48
CQPKSFSGFGAEDDDLGGLGLGP [I4K]	2.05
CQPESFSGFGAEDDDLGGLGLGP [I4E]	2.41
CQPVSFSGFGAEDDDLGGLGLGP [I4V]	2.54
CQPQSFSGFGAEDDDLGGLGLGP [I4Q]	2.15
CQPYSFSGFGAEDDDLGGLGLGP [I4Y]	2.09
CQPGSFSGFGAEDDDLGGLGLGP [I4G]	2.29
CQRISFSGFGAEDDDLGGLGLGP [P3R]	2.06
CQMISFSGFGAEDDDLGGLGLGP [P3M]	2.15
CQLISFSGFGAEDDDLGGLGLGP [P3L]	2.1
CQNISFSGFGAEDDDLGGLGLGP [P3N]	2.2

Variant	protein stability index
CQGISFSGFGAEDDDLGGLGLGP [P3G]	2.3
CQYISFSGFGAEDDDLGGLGLGP [P3Y]	2.01
CQAISFSGFGAEDDDLGGLGLGP [P3A]	2.19
CQCISFSGFGAEDDDLGGLGLGP [P3C]	2.12
CQVISFSGFGAEDDDLGGLGLGP [P3V]	2.14
CQQISFSGFGAEDDDLGGLGLGP [P3Q]	2.42
CQKISFSGFGAEDDDLGGLGLGP [P3K]	2.05
CQIISFSGFGAEDDDLGGLGLGP [P3I]	2.29
CQWISFSGFGAEDDDLGGLGLGP [P3W]	1.94
CQHISFSGFGAEDDDLGGLGLGP [P3H]	2.06
CQFISFSGFGAEDDDLGGLGLGP [P3F]	1.94
CQSISFSGFGAEDDDLGGLGLGP [P3S]	2.37
CQEISFSGFGAEDDDLGGLGLGP [P3E]	2.46
CQTISFSGFGAEDDDLGGLGLGP [P3T]	2.09
CQDISFSGFGAEDDDLGGLGLGP [P3D]	2.2
CQPIYFSGFGAEDDDLGGLGLGP [S5Y]	2.25
CQPIAFSGFGAEDDDLGGLGLGP [S5A]	2.77
CQPIEFSGFGAEDDDLGGLGLGP [S5E]	2.99
CQPIWFSGFGAEDDDLGGLGLGP [S5W]	2.58
CQPIFFSGFGAEDDDLGGLGLGP [S5F]	2.29
CQPITFSGFGAEDDDLGGLGLGP [S5T]	2.41
CQPIKFSGFGAEDDDLGGLGLGP [S5K]	2.39
CQPIGFSGFGAEDDDLGGLGLGP [S5G]	2.36

Variant	protein stability index
CQPIPFSGFGAEDDDLGGLGLGP [S5P]	2.42
CQPIRFSGFGAEDDDLGGLGLGP [S5R]	2.14
CQPIQFSGFGAEDDDLGGLGLGP [S5Q]	2.24
CQPILFSGFGAEDDDLGGLGLGP [S5L]	2.25
CQPINFSGFGAEDDDLGGLGLGP [S5N]	2.4
CQPIMFSGFGAEDDDLGGLGLGP [S5M]	2.46
CQPICFSGFGAEDDDLGGLGLGP [S5C]	2.16
CQPIDFSGFGAEDDDLGGLGLGP [S5D]	2.69
CQPIIFSGFGAEDDDLGGLGLGP [S5I]	2.75
CQPIHFSGFGAEDDDLGGLGLGP [S5H]	2.42
CQPIVFSGFGAEDDDLGGLGLGP [S5V]	2.54
CQPISFSLFGAEDDDLGGLGLGP [G8L]	1.97
CQPISFSIFGAEDDDLGGLGLGP [G8I]	2.06
CQPISFSYFGAEDDDLGGLGLGP [G8Y]	2.31
CQPISFSFFGAEDDDLGGLGLGP [G8F]	2.39
CQPISFSNFGAEDDDLGGLGLGP [G8N]	2.24
CQPISFSWFGAEDDDLGGLGLGP [G8W]	2.19
CQPISFSSFGAEDDDLGGLGLGP [G8S]	2.15
CQPISFSKFGAEDDDLGGLGLGP [G8K]	2.48
CQPISFSHFGAEDDDLGGLGLGP [G8H]	1.98
CQPISFSDFGAEDDDLGGLGLGP [G8D]	2.05
CQPISFSQFGAEDDDLGGLGLGP [G8Q]	1.87
CQPISFSTFGAEDDDLGGLGLGP [G8T]	2.34

Variant	protein stability index
CQPISFSVFGAEDDDLGGLGLGP [G8V]	2.16
CQPISFSMFGAEDDDLGGLGLGP [G8M]	2.23
CQPISFSPFGAEDDDLGGLGLGP [G8P]	3.55
CQPISFSRFGAEDDDLGGLGLGP [G8R]	2.52
CQPISFSEFGAEDDDLGGLGLGP [G8E]	2.03
CQPISFSCFGAEDDDLGGLGLGP [G8C]	1.96
FQPISFSGFGAEDDDLGGLGLGP [C1F]	2.6
LQPISFSGFGAEDDDLGGLGLGP [C1L]	1.97
HQPISFSGFGAEDDDLGGLGLGP [C1H]	2.17
AQPISFSGFGAEDDDLGGLGLGP [C1A]	2.11
RQPISFSGFGAEDDDLGGLGLGP [C1R]	2.31
SQPISFSGFGAEDDDLGGLGLGP [C1S]	2.17
NQPISFSGFGAEDDDLGGLGLGP [C1N]	2.28
IQPISFSGFGAEDDDLGGLGLGP [C1I]	2.12
PQPISFSGFGAEDDDLGGLGLGP [C1P]	2.33
YQPISFSGFGAEDDDLGGLGLGP [C1Y]	2.18
WQPISFSGFGAEDDDLGGLGLGP [C1W]	1.91
MQPISFSGFGAEDDDLGGLGLGP [C1M]	2.34
EQPISFSGFGAEDDDLGGLGLGP [C1E]	2.53
TQPISFSGFGAEDDDLGGLGLGP [C1T]	2.14
GQPISFSGFGAEDDDLGGLGLGP [C1G]	2.41
KQPISFSGFGAEDDDLGGLGLGP [C1K]	2.06
QQPISFSGFGAEDDDLGGLGLGP [C1Q]	2.37

Variant	protein stability index
DQPISFSGFGAEDDDLGGLGLGP [C1D]	2.57
VQPISFSGFGAEDDDLGGLGLGP [C1V]	2.27
CTPISFSGFGAEDDDLGGLGLGP [Q2T]	2.16
CRPISFSGFGAEDDDLGGLGLGP [Q2R]	2.17
CGPISFSGFGAEDDDLGGLGLGP [Q2G]	2.1
CLPISFSGFGAEDDDLGGLGLGP [Q2L]	2.51
CFPISFSGFGAEDDDLGGLGLGP [Q2F]	1.99
CPPISFSGFGAEDDDLGGLGLGP [Q2P]	2.19
CIPISFSGFGAEDDDLGGLGLGP [Q2I]	2.16
CNPISFSGFGAEDDDLGGLGLGP [Q2N]	2.31
CAPISFSGFGAEDDDLGGLGLGP [Q2A]	1.98
CCPISFSGFGAEDDDLGGLGLGP [Q2C]	2.14
CYPISFSGFGAEDDDLGGLGLGP [Q2Y]	2.09
CSPISFSGFGAEDDDLGGLGLGP [Q2S]	2.64
CKPISFSGFGAEDDDLGGLGLGP [Q2K]	2.22
CEPISFSGFGAEDDDLGGLGLGP [Q2E]	2.43
CDPISFSGFGAEDDDLGGLGLGP [Q2D]	2.51
CVPISFSGFGAEDDDLGGLGLGP [Q2V]	1.98
CWPISFSGFGAEDDDLGGLGLGP [Q2W]	2.13
CMPISFSGFGAEDDDLGGLGLGP [Q2M]	2.16
CHPISFSGFGAEDDDLGGLGLGP [Q2H]	2.26
CQPISFSGEGAEDDDLGGLGLGP [F9E]	2.98
CQPISFSGGGAEDDDLGGLGLGP [F9G]	3.01

Variant	protein stability index
CQPISFSGAGAEDDDLGGLGLGP [F9A]	2.58
CQPISFSGCGAEDDDLGGLGLGP [F9C]	2.36
CQPISFSGHGAEDDDLGGLGLGP [F9H]	2.42
CQPISFSGDGAEDDDLGGLGLGP [F9D]	3.32
CQPISVSGFGAEDDDLGGLGLGP [F6V]	3.43
CQPISESGFGAEDDDLGGLGLGP [F6E]	4.72
CQPISSSGFGAEDDDLGGLGLGP [F6S]	3.93
CQPISKSGFGAEDDDLGGLGLGP [F6K]	4.18
CQPISLSGFGAEDDDLGGLGLGP [F6L]	3.5
CQPISASGFGAEDDDLGGLGLGP [F6A]	3.88
CQPISMSGFGAEDDDLGGLGLGP [F6M]	3.53
CQPISCSGFGAEDDDLGGLGLGP [F6C]	3.41
CQPISHSGFGAEDDDLGGLGLGP [F6H]	3.48
CQPISDSGFGAEDDDLGGLGLGP [F6D]	4.57
CQPISWSGFGAEDDDLGGLGLGP [F6W]	2.22
CQPISQSGFGAEDDDLGGLGLGP [F6Q]	4.21
CQPISNSGFGAEDDDLGGLGLGP [F6N]	4.41
CQPISTSGFGAEDDDLGGLGLGP [F6T]	3.93
CQPISRSGFGAEDDDLGGLGLGP [F6R]	3.86
CQPISYSGFGAEDDDLGGLGLGP [F6Y]	2.52
CQPISGSGFGAEDDDLGGLGLGP [F6G]	4.16
CQPISPSGFGAEDDDLGGLGLGP [F6P]	4.41
CQPISISGFGAEDDDLGGLGLGP [F6I]	3.63

Variant	protein stability index
CQPISFVGFGAEDDDLGGLGLGP [S7V]	2.07
CQPISFYGFGAEDDDLGGLGLGP [S7Y]	2.6
CQPISFTGFGAEDDDLGGLGLGP [S7T]	2.19
CQPISFDGFGAEDDDLGGLGLGP [S7D]	3.66
CQPISFKGFGAEDDDLGGLGLGP [S7K]	2.77
CQPISFMGFGAEDDDLGGLGLGP [S7M]	2.47
CQPISFLGFGAEDDDLGGLGLGP [S7L]	2.43
CQPISFRGFGAEDDDLGGLGLGP [S7R]	2.56
CQPISFGGFGAEDDDLGGLGLGP [S7G]	2.87
CQPISFEGFGAEDDDLGGLGLGP [S7E]	2.72
CQPISFWGFGAEDDDLGGLGLGP [S7W]	2.42
CQPISFFGFGAEDDDLGGLGLGP [S7F]	2.48
CQPISFHGFGAEDDDLGGLGLGP [S7H]	3.06
CQPISFPGFGAEDDDLGGLGLGP [S7P]	4.14
CQPISFQGFGAEDDDLGGLGLGP [S7Q]	2.48
CQPISFNGFGAEDDDLGGLGLGP [S7N]	3.37
CQPISFAGFGAEDDDLGGLGLGP [S7A]	1.89
CQPISFCGFGAEDDDLGGLGLGP [S7C]	2.11
CQPISFIGFGAEDDDLGGLGLGP [S7I]	2.13

Variants of: B2
Test: as above
Conditions: c terminus: native

Variant	protein stability index
RRQTSMTDFYHSKRRLIFSKRKI [P23I]	2.74
RRQTSMTDFYHSKRRLIFSKRKC [P23C]	3.15
RRQTSMTDFYHSKRRLIFSKRKW [P23W]	3.55
RRQTSMTDFYHSKRRLIFSKRKY [P23Y]	3.15
RRQTSMTDFYHSKRRLIFSKRKL [P23L]	2.84
RRQTSMTDFYHSKRRLIFSKRKG [P23G]	2.48
RRQTSMTDFYHSKRRLIFSKRKK [P23K]	2.95
RRQTSMTDFYHSKRRLIFSKRKA [P23A]	1.85
RRQTSMTDFYHSKRRLIFSKRKD [P23D]	2.49
RRQTSMTDFYHSKRRLIFSKRKV [P23V]	2.57
RRQTSMTDFYHSKRRLIFSKRKF [P23F]	2.76
RRQTSMTDFYHSKRRLIFSKRKM [P23M]	2.46
RRQTSMTDFYHSKRRLIFSKIKP [R21I]	4.52
RRQTSMTDFYHSKRRLIFSKVKP [R21V]	3.09
RRQTSMTDFYHSKRRLIFSKKKP [R21K]	3.61
RRQTSMTDFYHSKRRLIFSKMKP [R21M]	3.37
RRQTSMTDFYHSKRRLIFSKSKP [R21S]	3.09
RRQTSMTDFYHSKRRLIFSKNKP [R21N]	2.79
RRQTSMTDFYHSKRRLIFSKTKP [R21T]	3.55

Variant	protein stability index
RRQTSMTDFYHSKRRLIFSKQKP [R21Q]	2.4
RRQTSMTDFYHSKRRLIFSKLKP [R21L]	2.67
RRQTSMTDFYHSKRRLIFSKPKP [R21P]	2.73
RRQTSMTDFYHSKRRLIFSKYKP [R21Y]	2.97
RRQTSMTDFYHSKRRLIFSKRSP [K22S]	3.2
RRQTSMTDFYHSKRRLIFSKRQP [K22Q]	2.42
RRQTSMTDFYHSKRRLIFSKRNP [K22N]	3.35
RRQTSMTDFYHSKRRLIFSKRYP [K22Y]	2.55
RRQTSMTDFYHSKRRLIFSKRVP [K22V]	3.36
RRQTSMTDFYHSKRRLIFSKRAP [K22A]	1.72
RRQTSMTDFYHSKRRLIFSKRTP [K22T]	2.58
RRQTSMTDFYHSKRRLIFSKRDP [K22D]	1.85
RRQTSMTDFYHSKRRLIFSKRWP [K22W]	2.91
RRQTSMTDFYHSKRRLIFSKRIP [K22I]	2.35
RRQTSMTDFYHSKRRLIFSKRFP [K22F]	1.77
RRQTSMTDFYHSKRRLIFSKRRP [K22R]	4.35
RRQTSMTDFYHSKRRLIFSKRMP [K22M]	3.93
RRQTSMTDFYHSKRRLIFSKRLP [K22L]	1.74
